# Measurements: publication doi:10.1101/2025.06.12.659276
# Biological target: mGq fused to GFP10
# Assay: BRET (mGq-GFP recruitment to Rluc-fused receptor)
# Settings: n = 4, parent: est. 0.30, read off a plot
substance,measurement,setting,value
"US28-Rluc (from UniProt P69332) US28-PDCT: S>A at 12 sites and T>V at 2 sites after helix 8, in the printed stretch QRLF[S>A]RDV[S>A]WYH[S>A]M[S>A]F[S>A]RR[S>A][S>A]P[S>A]RRE[T>V][S>A][S>A]D[T>V]L[S>A]DEVCRV[S>A]QIIP; residue numbers not printed",response,parental HEK-293 cells,0.31
same,response,β-arrestin 1/2-deficient (Δβarr1/2) HEK-293 cells,0.26
